Experimental findings from publication PMC6220982 are described below.

Values joined by “and” are separate entries in the source; they are usually repeats but may differ in a detail not shown here. Identical values can stand only once.

The target of experiment [1] is Asn3-ISP (intracellular subtilisin protease from Planococcus sp. AW02J18, starting at Asn3) (Planococcus sp. AW02J18). Nature of the experiment: SEC; pre-calibrated Superdex 200 10/300 GL; 500 µl Asn3-ISP at 0.8 mg/mL; 50 mM Tris-HCl pH 7.5, 150 mM NaCl; without calcium or with 1 mM EDTA (overnight). For orientation: Size exclusion chromatography separates by hydrodynamic size, large species first.

The target is the same in experiment [2]. Kind of experiment: SEC; pre-calibrated Superdex 200 10/300 GL; 500 µl Asn3-ISP at 0.8 mg/mL; 50 mM Tris-HCl pH 7.5, 150 mM NaCl; with 2 mM CaCl2 added immediately before the run.

Consider “Asn3-ISP (intracellular subtilisin protease from Planococcus sp. AW02J18, starting at Asn3) (enzyme)”, for which the stoichiometry N (monomers per oligomer) is 3.3 in experiment [1]; 3.7 and 2.5 in experiment [2].
